From the supplement of paper PMC10724198
± gives the standard deviation of the averaged measurements.

Experiments:
Saccharomyces cerevisiae [1] = assay: protein stability index of tFT-peptide fusion (C-terminal peptide) (PSI (0-1 scale)); higher = more stable (slower turnover)
Description: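 MPS profiling in S. cerevisiae of the tFT-X12 degron library: putative degron peptides plus stable controls, 12 aa, fused to the C-terminus of a sfGFP-mCherry timer. Cells are FACS-sorted into 8 mCherry/sfGFP bins and deep-sequenced. PSI runs from 0 (unstable) to 1 (stable). Backgrounds are wild type, das1Δ and doa10Δ at 30 °C, and wild type, das1Δ, cdc34-1 and cdc53-1 at 37 °C; 2-3 technical replicates each.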

Saccharomyces cerevisiae [2] = assay: as above; conditions: genetic background: wild type; temperature: 30 C
[3] = genetic background: cdc34-1, temperature: 37 C
[4] = genetic background: cdc53-1, temperature: 37 C
[5] = genetic background: das1 deletion, temperature: 30 C
[6] = genetic background: das1 deletion, temperature: 37 C
[7] = genetic background: doa10 deletion, temperature: 30 C
[8] = genetic background: wild type, temperature: 30 C
[9] = genetic background: wild type, temperature: 37 C
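Further: PSI is a weighted mean of sequencing reads over stability bins, variants kept only with over 10 reads, mCherry proximal and sfGFP distal, peptide attached via GGGS linker.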

Row | Sequence | protein stability index (Saccharomyces cerevisiae [1]; [3]) | protein stability index (Saccharomyces cerevisiae [1]; [4]) | protein stability index (Saccharomyces cerevisiae [1]; [5]) | protein stability index (Saccharomyces cerevisiae [1]; [6]) | protein stability index (Saccharomyces cerevisiae [1]; [7]) | protein stability index (Saccharomyces cerevisiae [1]; [8]) | protein stability index (Saccharomyces cerevisiae [1]; [9]) | protein stability index (Saccharomyces cerevisiae [2])
1 | PDRSTILHISGF | 0.721 ± 0.021 | 0.7606 ± 0.001 | 0.642 ± 0.034 | 0.744 ± 0.022 | 0.644 ± 0.037 | 0.633 ± 0.0087 | 0.728 ± 0.023 | 0.699 ± 0.019
2 | PETSRFALNEWG | 0.709 ± 0.04 | 0.748 ± 0.018 | 0.665 ± 0.0095 | 0.755 ± 0.0086 | 0.674 ± 0.043 | 0.68 ± 0.02 | 0.717 ± 0.011 | 0.727 ± 0.059
3 | PFFFSFILVLFW | 0.172 ± 0.0087 | 0.172 ± 0.036 | 0.219 ± 0.0092 | 0.286 ± 0.034 | 0.2355 ± 0.0021 | 0.186 ± 0.035 | 0.244 ± 0.02 | 0.264 ± 0.028
4 | PFFHVFLLLLLI | 0.153 ± 0.011 | 0.1359 ± 0.00032 | 0.188 ± 0.022 | 0.258 ± 0.0067 | 0.313 ± 0.021 | 0.154 ± 0.017 | 0.213 ± 0.0042 | 0.195 ± 0.0064
5 | PIKIYGYLTTVV | 0.597 ± 0.024 | 0.644 ± 0.023 | 0.517 ± 0.032 | 0.653 ± 0.02 | 0.474 ± 0.032 | 0.475 ± 0.02 | 0.6337 ± 0.0023 | 0.523 ± 0.045
6 | PISLYFVWFFFF | 0.242 ± 0.0081 | 0.363 ± 0.033 | 0.251 ± 0.024 | 0.369 ± 0.04 | 0.15 ± 0.011 | 0.147 ± 0.0072 | 0.269 ± 0.015 | 0.195 ± 0.074
7 | PLFPLLGLLFFF | 0.595 ± 0.029 | 0.6147 ± 0.0041 | 0.513 ± 0.032 | 0.592 ± 0.02 | 0.472 ± 0.032 | 0.496 ± 0.039 | 0.558 ± 0.018 | 0.461 ± 0.046
8 | PPGLLPPCLLVV | 0.358 ± 0.027 | 0.373 ± 0.0093 | 0.307 ± 0.035 | 0.444 ± 0.02 | 0.2485 ± 0.00054 | 0.301 ± 0.028 | 0.395 ± 0.011 | 0.39 ± 0.05
9 | PPLPPVCPSPSL | 0.665 ± 0.031 | 0.74 ± 0.027 | 0.658 ± 0.0035 | 0.7274 ± 0.0068 | 0.667 ± 0.023 | 0.685 ± 0.028 | 0.714 ± 0.004 | 0.485 ± 0.0061
10 | PPPNSSTSPPCS | 0.6572 ± 0.003 | 0.725 ± 0.017 | 0.661 ± 0.036 | 0.683 ± 0.011 | 0.681 ± 0.029 | 0.687 ± 0.0096 | 0.677 ± 0.013 | 0.196 ± 0.015
11 | PPRRCFPLLLFF | 0.44 ± 0.094 | 0.4471 ± 0.0019 | 0.445 ± 0.022 | 0.546 ± 0.01 | 0.208 ± 0.0085 | 0.209 ± 0.014 | 0.331 ± 0.012 | 0.235 ± 0.036
12 | PPSPVPPIWYLA | 0.636 ± 0.037 | 0.7595 ± 0.0041 | 0.707 ± 0.017 | 0.753 ± 0.029 | 0.233 ± 0.0083 | 0.261 ± 0.045 | 0.417 ± 0.019 | 0.372 ± 0.0055
13 | PRQGGDFVARVG | 0.691 ± 0.0076 | 0.726 ± 0.024 | 0.638 ± 0.016 | 0.7341 ± 0.0065 | 0.631 ± 0.027 | 0.641 ± 0.015 | 0.721 ± 0.022 | 0.7001 ± 0.0014
14 | PRSFFYIQFVFA | 0.301 ± 0.016 | 0.369 ± 0.025 | 0.233 ± 0.016 | 0.431 ± 0.011 | 0.194 ± 0.011 | 0.224 ± 0.022 | 0.375 ± 0.014 | 0.324 ± 0.0069
15 | PSDVLERVIRLL | 0.616 ± 0.027 | 0.714 ± 0.023 | 0.647 ± 0.019 | 0.7309 ± 0.00081 | 0.136 ± 0.0023 | 0.168 ± 0.01 | 0.277 ± 0.051 | 0.265 ± 0.026
16 | PSLPPLPPFAAL | 0.73 ± 0.0098 | 0.7412 ± 0.0013 | 0.676 ± 0.051 | 0.75 ± 0.021 | 0.663 ± 0.0099 | 0.661 ± 0.02 | 0.72 ± 0.024 | 0.749 ± 0.052
17 | PSPVPPPSSPSP | 0.682 ± 0.029 | 0.728 ± 0.027 | 0.67 ± 0.026 | 0.717 ± 0.022 | 0.674 ± 0.021 | 0.684 ± 0.029 | 0.7075 ± 0.0063 | 0.71 ± 0.012
18 | PSPVRSSYASTL | 0.6664 ± 0.0066 | 0.704 ± 0.024 | 0.6396 ± 0.0033 | 0.7222 ± 0.0029 | 0.6532 ± 0.0047 | 0.665 ± 0.02 | 0.68992 ± 0.00058 | 0.711 ± 0.049
19 | PSVRCVVACFIN | 0.241 ± 0.021 | 0.584 ± 0.13 | 0.464 ± 0.02 | 0.576 ± 0.0068 | 0.137 ± 0.028 | 0.172 ± 0.039 | 0.165 ± 0.015 | 0.277 ± 0.015
20 | PVGRSVFFVWFL | 0.65 ± 0.071 | 0.7009 ± 0.0022 | 0.587 ± 0.019 | 0.744 ± 0.029 | 0.3522 ± 0.0035 | 0.367 ± 0.016 | 0.554 ± 0.013 | 0.458 ± 0.019

Row | Sequence | protein stability index (Saccharomyces cerevisiae [1]; [3]) | protein stability index (Saccharomyces cerevisiae [1]; [4]) | protein stability index (Saccharomyces cerevisiae [1]; [5]) | protein stability index (Saccharomyces cerevisiae [1]; [6]) | protein stability index (Saccharomyces cerevisiae [1]; [7]) | protein stability index (Saccharomyces cerevisiae [1]; [8]) | protein stability index (Saccharomyces cerevisiae [1]; [9]) | protein stability index (Saccharomyces cerevisiae [2])
21 | PVKGTMIKAKNT | 0.659 ± 0.088 | 0.73 ± 0.027 | 0.607 ± 0.026 | 0.71 ± 0.0026 | 0.184 ± 0.017 | 0.193 ± 0.024 | 0.341 ± 0.043 | 0.354 ± 0.068
22 | PVLSLPPLSSPP | 0.682 ± 0.032 | 0.7318 ± 0.0057 | 0.682 ± 0.0089 | 0.7244 ± 0.0058 | 0.691 ± 0.034 | 0.691 ± 0.02 | 0.7044 ± 0.0064 | 0.7068 ± 0.0043
23 | PVLYSFSLWIHL | 0.34 ± 0.049 | 0.441 ± 0.024 | 0.299 ± 0.028 | 0.457 ± 0.011 | 0.2273 ± 0.00038 | 0.255 ± 0.02 | 0.389 ± 0.02 | 0.361 ± 0.0082
24 | PVWLFLVRAIKG | 0.431 ± 0.048 | 0.455 ± 0.024 | 0.321 ± 0.028 | 0.5125 ± 0.002 | 0.262 ± 0.0072 | 0.33 ± 0.029 | 0.512 ± 0.056 | 0.431 ± 0.0097
25 | PWLLHTPLSLVF | 0.321 ± 0.032 | 0.356 ± 0.018 | 0.335 ± 0.017 | 0.403 ± 0.0063 | 0.3182 ± 0.00076 | 0.349 ± 0.0058 | 0.4 ± 0.0051 | 0.434 ± 0.0077
26 | QCLSYFFPVPVA | 0.073 ± 0.042 | 0.0838 ± 0.012 | 0.186 ± 0.03 | 0.227 ± 0.0065 | 0.147 ± 0.014 | 0.182 ± 0.02 | 0.192 ± 0.018 | 0.258 ± 0.035
27 | QGRRKEKAVTLN | 0.652 ± 0.12 | 0.685 ± 0.016 | 0.648 ± 0.041 | 0.729 ± 0.019 | 0.175 ± 0.035 | 0.193 ± 0.032 | 0.241 ± 0.022 | 0.3 ± 0.015
28 | QKGLFYCVILYC | 0.169 ± 0.019 | 0.253 ± 0.034 | 0.214 ± 0.027 | 0.3829 ± 0.0019 | 0.148 ± 0.017 | 0.156 ± 0.032 | 0.272 ± 0.0046 | 0.316 ± 0.017
29 | RDGAHFLLILVC | 0.0425 ± 0.0098 | 0.0913 ± 0.022 | 0.176 ± 0.033 | 0.2536 ± 0.0015 | 0.088 ± 0.025 | 0.125 ± 0.025 | 0.154 ± 0.019 | 0.203 ± 0.059
30 | RFFFSSFPLLIS | 0.327 ± 0.049 | 0.2628 ± 0.0026 | 0.349 ± 0.047 | 0.471 ± 0.014 | 0.207 ± 0.0091 | 0.199 ± 0.025 | 0.307 ± 0.016 | 0.282 ± 0.013
31 | RFLVVVRFYWRC | 0.288 ± 0.087 | 0.424 ± 0.013 | 0.245 ± 0.028 | 0.441 ± 0.0079 | 0.168 ± 0.015 | 0.214 ± 0.035 | 0.36 ± 0.0067 | 0.439 ± 0.044
32 | RGFIYCSFVVRL | 0.4134 ± 0.00058 | 0.466 ± 0.029 | 0.328 ± 0.025 | 0.532 ± 0.012 | 0.301 ± 0.016 | 0.33 ± 0.021 | 0.465 ± 0.022 | 0.412 ± 0.0052
33 | RGLLLKILIASG | 0.376 ± 0.029 | 0.463 ± 0.034 | 0.305 ± 0.019 | 0.48 ± 0.0095 | 0.188 ± 0.012 | 0.213 ± 0.026 | 0.382 ± 0.0086 | 0.237 ± 0.081
34 | RGVGSGGLEGIG | 0.509 ± 0.06 | 0.5457 ± 0.0032 | 0.5178 ± 0.001 | 0.543 ± 0.025 | 0.51 ± 0.004 | 0.514 ± 0.021 | 0.5404 ± 0.0019 | 0.541 ± 0.061
35 | RGVPPPPWTPPP | 0.706 ± 0.041 | 0.7482 ± 0.0045 | 0.6792 ± 0.0067 | 0.731 ± 0.02 | 0.653 ± 0.012 | 0.661 ± 0.0081 | 0.716 ± 0.014 | 0.539 ± 0.062
36 | RIWRLLIIIIKK | 0.387 ± 0.015 | 0.428 ± 0.11 | 0.236 ± 0.085 | 0.565 ± 0.056 | 0.232 ± 0.023 | 0.259 ± 0.016 | 0.456 ± 0.012 | 0.325 ± 0.12
37 | RKRKKISEIIAI | 0.664 ± 0.054 | 0.708 ± 0.075 | 0.589 ± 0.036 | 0.69 ± 0.039 | 0.519 ± 0.037 | 0.572 ± 0.041 | 0.637 ± 0.003 | 0.52 ± 0.047
38 | RLPFPVVLFLLF | 0.392 ± 0.033 | 0.465 ± 0.028 | 0.387 ± 0.041 | 0.515 ± 0.026 | 0.3 ± 0.008 | 0.28 ± 0.024 | 0.404 ± 0.011 | 0.352 ± 0.013
39 | RLVMAVRVAAGG | 0.509 ± 0.025 | 0.532 ± 0.0023 | 0.347 ± 0.033 | 0.55975 ± 0.00038 | 0.327 ± 0.011 | 0.349 ± 0.015 | 0.524 ± 0.031 | 0.451 ± 0.034
